Measurements as given in patent US20140051106.

Tests used:
[1] = molecular target: T1, HIF-1α C-terminal oxygen dependent degradation domain (CODD) peptide, Q16665
T1 chain: DLDLEMLAPYIPMDDDFQL

[2] = molecular target: T2, HIF-1α C-terminal transcriptional activation domain (CTAD) peptide, Q16665
T2 chain: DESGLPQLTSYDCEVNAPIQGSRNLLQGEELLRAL

[3] = molecular target: T3, HIF-1α N-terminal oxygen dependent degradation domain (NODD) peptide, Q16665
T3 chain: DALTLLAPAAGDTIISLDF

RPS23 16mer = molecular target: T4, RPS23 16mer
T4 chain: EKVGVEAKQPNSAIRK

RPS23 20mer C19A = molecular target: T5, RPS23 20mer C19A
T5 chain: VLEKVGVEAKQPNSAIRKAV

RPS23 20mer E08A = molecular target: T6, RPS23 20mer E08A
T6 chain: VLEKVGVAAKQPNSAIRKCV

RPS23 20mer G06A = molecular target: T7, RPS23 20mer G06A
T7 chain: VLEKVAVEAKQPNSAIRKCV

RPS23 20mer I16A = molecular target: T8, RPS23 20mer I16A
T8 chain: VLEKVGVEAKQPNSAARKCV

RPS23 20mer K04A = molecular target: T9, RPS23 20mer K04A
T9 chain: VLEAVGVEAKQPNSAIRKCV

RPS23 20mer K10A = molecular target: T10, RPS23 20mer K10A
T10 chain: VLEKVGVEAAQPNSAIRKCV

RPS23 20mer K18A = molecular target: T11, RPS23 20mer K18A
T11 chain: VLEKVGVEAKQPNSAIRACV

RPS23 20mer N13A = molecular target: T12, RPS23 20mer N13A
T12 chain: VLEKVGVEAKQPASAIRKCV

RPS23 20mer P12A = molecular target: T13, RPS23 20mer P12A
T13 chain: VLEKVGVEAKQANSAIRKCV

RPS23 20mer P12I = molecular target: T14, RPS23 20mer P12I
T14 chain: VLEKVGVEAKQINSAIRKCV

RPS23 20mer Q11A = molecular target: T15, RPS23 20mer Q11A
T15 chain: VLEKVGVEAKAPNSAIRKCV

RPS23 20mer S14A = molecular target: T16, RPS23 20mer S14A
T16 chain: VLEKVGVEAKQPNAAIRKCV

RPS23 20mer V05A = molecular target: T17, RPS23 20mer V05A
T17 chain: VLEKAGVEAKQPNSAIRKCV

RPS23 20mer V07A = molecular target: T18, RPS23 20mer V07A
T18 chain: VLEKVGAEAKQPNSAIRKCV

[4] = molecular target: RPS23 peptide (peptide fragment of the RPS23 protein)
[5] = molecular target: T19, S. Cerevisiae RPS23 peptide
T19 chain: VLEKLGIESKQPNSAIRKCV

S. Pombe RPS23 peptide = molecular target: T20, S. Pombe RPS23 peptide
T20 chain: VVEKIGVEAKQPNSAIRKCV

[6] = molecular target: histone fragment peptides

B1: recombinant full-length human OGFOD1 (protein)
chain: MNGKRPAEPGPARVGKKGKKEVMAEFSDAVTEETLKKQVAEAWSRRTPFSHEVIVMDMDPFLHCVIPNFIQSQDFLEGLQKELMNLDFHEKYNDLYKFQQSDDLKKRREPHISTLRKILFEDFRSWLSDISKIDLESTIDMSCAKYEFTDALLCHDDELEGRRIAFILYLVPPWDRSMGGTLDLYSIDEHFQPKQIVKSLIPSWNKLVFFEVSPVSFHQVSEVLSEEKSRLSISGWFHGPSLTRPPNYFEPPIPRSPHIPQDHEILYDWINPTYLDMDYQVQIQEEFEESSEILLKEFLKPEKFTKVCEALEHGHVEWSSRGPPNKRFYEKAEESKLPEILKECMKLFRSEALFLLLSNFTGLKLHFLAPSEEDEMNDKKEAETTDITEEGTSHSPPEPENNQMAISNNSQQSNEQTDPEPEENETKKESSVPMCQGELRHWKTGHYTLIHDHSKAEFALDLILYCGCEGWEPEYGGFTSYIAKGEDEELLTVNPESNSLALVYRDRETLKFVKHINHRSLEQKKTFPNRTGFWDFSFIYYE
Hydroxylation (E. Coli S12 peptide): - | Hydroxylation (MALDI assay) [1]: No hydroxylation of the PHD2 C-terminal oxygen-dependent degradation domain (CODD) substrate by OGFOD1 was observed under the same assay conditions. | MALDI-TOF, +16 Da mass shift characteristic of hydroxylation [1]: None of these potential substrates displayed evidence of a +16 Da mass shift characteristic of hydroxylation. | MALDI-TOF, +16 Da mass shift characteristic of hydroxylation [2]: None of these potential substrates displayed evidence of a +16 Da mass shift characteristic of hydroxylation. | MALDI-TOF, +16 Da mass shift characteristic of hydroxylation [3]: None of these potential substrates displayed evidence of a +16 Da mass shift characteristic of hydroxylation. | Hydroxylation (RPS23 16mer): + | Hydroxylation (RPS23 20mer): ++ | amino acid analysis of the enzymatic product (RPS23 20mer): The results clearly demonstrate the presence of trans-3-hydroxyproline in the enzymatic product | Hydroxylation (RPS23 20mer C19A): ++ | Hydroxylation (RPS23 20mer E08A): ++ | Hydroxylation (RPS23 20mer G06A): ++ | Hydroxylation (RPS23 20mer I16A): ++ | Hydroxylation (RPS23 20mer K04A): ++ | Hydroxylation (RPS23 20mer K10A): ++ | Hydroxylation (RPS23 20mer K18A): ++ | Hydroxylation (RPS23 20mer N13A): + | Hydroxylation (RPS23 20mer P12A): - | Hydroxylation (RPS23 20mer P12I): - | Hydroxylation (RPS23 20mer Q11A): ++ | Hydroxylation (RPS23 20mer S14A): + | Hydroxylation (RPS23 20mer V05A): ++ | Hydroxylation (RPS23 20mer V07A): ++ | 2OG turnover assay [4]: Activity is also stimulated significantly in the presence of a peptide fragment of the RPS23 protein. | MALDI mass spectrometry, +16 mass shift [4]: a clear +16 mass shift was observed upon incubation of RPS23 peptide with wild-type OGFOD1 | Hydroxylation [5]: ++ | Hydroxylation (S. Pombe RPS23 peptide): ++ | MALDI-TOF, demethylation [6]: Neither did we find that OGFOD1 catalyzed N^ε-methyl-lysine or arginyl demethylation of histone fragment peptides

B2: H155A mutant of full-length human OGFOD1 (protein)
chain: MGSSHHHHHHSSGLVPRGSHMASMNGKRPAEPGPARVGKKGKKEVMAEFSDAVTEETLKKQVAEAWSRRTPFSHEVIVMDMDPFLHCVIPNFIQSQDFLEGLQKELMNLDFHEKYNDLYKFQQSDDLKKRREPHISTLRKILFEDFRSWLSDISKIDLESTIDMSCAKYEFTDALLCADDELEGRRIAFILYLVPPWDRSMGGTLDLYSIDEHFQPKQIVKSLIPSWNKLVFFEVSPVSFHQVSEVLSEEKSRLSISGWFHGPSLTRPPNYFEPPIPRSPHIPQDHEILYDWINPTYLDMDYQVQIQEEFEESSEILLKEFLKPEKFTKVCEALEHGHVEWSSRGPPNKRFYEKAEESKLPEILKECMKLFRSEALFLLLSNFTGLKLHFLAPSEEDEMNDKKEAETTDITEEGTSHSPPEPENNQMAISNNSQQSNEQTDPEPEENETKKESSVPMCQGELRHWKTGHYTLIHDHSKAEFALDLILYCGCEGWEPEYGGFTSYIAKGEDEELLTVNPESNSLALVYRDRETLKFVKHINHRSLEQKKTFPNRTGFWDFSFIYYE
MALDI mass spectrometry, +16 mass shift [4]: no such change was detectable with the H155A or D157A variants under standard assay conditions

B3: D157A mutant of full-length human OGFOD1 (protein)
chain: MGSSHHHHHHSSGLVPRGSHMASMNGKRPAEPGPARVGKKGKKEVMAEFSDAVTEETLKKQVAEAWSRRTPFSHEVIVMDMDPFLHCVIPNFIQSQDFLEGLQKELMNLDFHEKYNDLYKFQQSDDLKKRREPHISTLRKILFEDFRSWLSDISKIDLESTIDMSCAKYEFTDALLCADAELEGRRIAFILYLVPPWDRSMGGTLDLYSIDEHFQPKQIVKSLIPSWNKLVFFEVSPVSFHQVSEVLSEEKSRLSISGWFHGPSLTRPPNYFEPPIPRSPHIPQDHEILYDWINPTYLDMDYQVQIQEEFEESSEILLKEFLKPEKFTKVCEALEHGHVEWSSRGPPNKRFYEKAEESKLPEILKECMKLFRSEALFLLLSNFTGLKLHFLAPSEEDEMNDKKEAETTDITEEGTSHSPPEPENNQMAISNNSQQSNEQTDPEPEENETKKESSVPMCQGELRHWKTGHYTLIHDHSKAEFALDLILYCGCEGWEPEYGGFTSYIAKGEDEELLTVNPESNSLALVYRDRETLKFVKHINHRSLEQKKTFPNRTGFWDFSFIYYE
MALDI mass spectrometry, +16 mass shift [4]: no such change was detectable with the H155A or D157A variants under standard assay conditions
